According to paper doi:10.1101/2020.08.14.250746 (bioRxiv, 2020):

Target: Untagged human calmodulin (recombinant) (human, UniProt P0DP23 1-149)
Experiment: pull-down

Question: Does FGKTKIFFRAGQVAYLEKLRADKLRAACIRIQKTIRGWLLRKRYLCMQR (domain or fragment) [GFP-myoVa-IQ1 (aa742-791)] bind?
Answer: Result: binds
